According to patent US7122636:

Molecular target: recombinant human IL-8, (ser-IL-8)72 (human, UniProt P10145 28-99)
Test: inhibition of 125I-IL-8 binding to neutrophils

B1: humanized 6G425 F(ab)-9 (humanized 6G4V11 Fab) (Fab, V domains shown)
VH: EVQLVQSGGGLVQPGGSLRLSCAASGYSFSSHYMHWVRQAPGKGLEWVGYIDPSNGETTYNQKFKGRFTLSRDNSKNTAYLQMNSLRAEDTAVYYCARGDYRYNGDWFFDVWGQGTLVTVSS
VL: DIQMTQSPSSLSASVGDRVTITCRSSQSLVHGIGNTYLHWYQQKPGKAPKLLIYKVSNRFSGVPSRFSGSGSGTDFTLTISSLQPEDFATYYCSQSTHVPLTFGQGTKVEIKR
- IC50: 4.9 nM
